We go through one molecule from publication PMC5499591 (Nucleic Acids Research, 2017).

One data set has as its target T1, GST-Mcm10 (wild type) (Saccharomyces cerevisiae, UniProt P32354 1-571).
T1 sequence: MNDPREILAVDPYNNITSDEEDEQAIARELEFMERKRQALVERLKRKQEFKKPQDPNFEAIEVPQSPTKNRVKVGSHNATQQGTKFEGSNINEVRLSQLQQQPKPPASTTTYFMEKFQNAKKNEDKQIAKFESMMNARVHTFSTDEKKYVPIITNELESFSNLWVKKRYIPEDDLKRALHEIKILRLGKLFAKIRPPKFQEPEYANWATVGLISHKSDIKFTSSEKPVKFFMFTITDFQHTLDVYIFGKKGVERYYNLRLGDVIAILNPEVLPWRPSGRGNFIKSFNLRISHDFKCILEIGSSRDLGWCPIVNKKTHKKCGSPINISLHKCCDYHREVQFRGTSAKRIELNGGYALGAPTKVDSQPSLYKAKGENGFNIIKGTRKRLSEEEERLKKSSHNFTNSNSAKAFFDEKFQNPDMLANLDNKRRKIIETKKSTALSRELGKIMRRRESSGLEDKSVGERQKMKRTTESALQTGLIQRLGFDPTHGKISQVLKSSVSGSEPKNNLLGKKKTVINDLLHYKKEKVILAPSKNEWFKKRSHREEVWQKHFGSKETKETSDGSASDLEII
Kind of data set: GST pull-down.

The target of another data set is T2, GST-Mcm10-4A (Saccharomyces cerevisiae, UniProt P32354 1-571, I26A;L30A;R37A;L40A).
T2 sequence: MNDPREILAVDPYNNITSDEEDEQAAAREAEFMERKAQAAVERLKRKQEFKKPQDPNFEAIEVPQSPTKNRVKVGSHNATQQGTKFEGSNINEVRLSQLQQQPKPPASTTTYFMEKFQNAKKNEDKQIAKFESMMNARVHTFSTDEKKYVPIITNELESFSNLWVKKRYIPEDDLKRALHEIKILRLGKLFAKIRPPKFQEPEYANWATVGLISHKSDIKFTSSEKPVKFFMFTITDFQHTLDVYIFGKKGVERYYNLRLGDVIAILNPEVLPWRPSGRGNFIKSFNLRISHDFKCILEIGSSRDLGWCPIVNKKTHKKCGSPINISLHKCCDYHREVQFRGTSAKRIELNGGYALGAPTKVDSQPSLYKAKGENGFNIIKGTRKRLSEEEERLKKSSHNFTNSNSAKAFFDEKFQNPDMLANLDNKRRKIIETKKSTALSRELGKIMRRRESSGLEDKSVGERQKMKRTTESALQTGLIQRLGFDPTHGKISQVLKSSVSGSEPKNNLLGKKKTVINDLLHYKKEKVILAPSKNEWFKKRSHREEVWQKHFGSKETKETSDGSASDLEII
Description: GST pull-down.

B1: 25mer ssDNA (ssDNA)
DNA: ATGTCCTAGCAAGCCAGAATTCGGC
With B1, the binding result in the data set with GST-Mcm10 (wild type) and in the data set with GST-Mcm10-4A was “binds” throughout.
